Test results reported in paper PMC5800367.

What was measured:
[1] = biological target: Recombinant Cynomolgus C5adesArg (Macaca fascicularis); assay: SPR
[2] = biological target: Serum purified human C5a (Homo sapiens) (UniProt P01031); assay: SPR
[3] = biological target: Recombinant human C5a (Homo sapiens) (UniProt P01031); assay: SPR
[4] = biological target: Serum purified Cynomolgus C5a (Macaca fascicularis); assay: SPR
[5] = biological target: Recombinant human C5a (Homo sapiens) (UniProt P01031); assay: kinetic exclusion assay
[6] = biological target: Recombinant human C5a (Homo sapiens) (UniProt P01031); assay: DELFIA biochemical competition assay
[7] = biological target: Serum purified human C5 (Homo sapiens) (UniProt P01031); assay: DELFIA biochemical competition assay

With MEDI7814 (antibody) the Kd [1] was 10 pM, the koff [1] was 0.000144 s⁻¹ and the kon [1] was 1.51e+07 M⁻¹ s⁻¹. For the same substance, the Kd [2] was 8 pM, the koff [2] was 0.000165 s⁻¹ and the kon [2] was 2.18e+07 M⁻¹ s⁻¹. For the same substance, the Kd [3] was 14 pM, the koff [3] was 0.000251 s⁻¹ and the kon [3] was 1.74e+07 M⁻¹ s⁻¹. It also gave a koff [4] of 0.000154 s⁻¹, a kon [4] of 8.08e+06 M⁻¹ s⁻¹ and a Kd [5] of 4 pM. For the same substance, the IC50 [6] was 300 pM and the IC50 [7] was 600 pM.
